Source: US20240270846A1 (published 2024)

Molecular target: T1, CD3 epsilon homodimer protein (UniProt P07766 23-126)
T1 construct: Construct of the homodimer protein is not described; also called CD3 (CD3 epsilon)
Test: SPR (Biacore T200), CD3 epsilon homodimer on CM4 chip, one-arm antibody as analyte; ratio to unaltered CE115HA000;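 note: surface plasmon resonance run at 25 °C with HBS-EP+ as running buffer, CD3 epsilon homodimer attached by amine coupling, antibody passed over as analyte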

T1 sequence (P07766 23-126): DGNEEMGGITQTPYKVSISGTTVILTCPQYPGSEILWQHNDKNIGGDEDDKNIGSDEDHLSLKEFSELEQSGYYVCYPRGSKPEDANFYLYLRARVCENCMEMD

Row | Binder | KD ratio (KD value of CE115HA000/KD value of the altered form)
1 | CE115HA000 G98K one-arm antibody (antibody, human IgG1, kappa, L234A L235A, N297A, name in Kabat numbering, one-arm antibody) heavy: QVQLVESGGGVVQPGRSLRLSCAASGFTFSNAWMHWVRQAPGKGLEWVAQIKAKSNNYATYYAESVKGRFTISRDDSKNSLYLQMNSLKTEDTAVYYCRYVHYKAYYGVDAWGQGTTVTVSSASTKGPSVFPLAPSSKSTSGGTAALGCLVKDYFPEPVTVSWNSGALTSGVHTFPAVLQSSGLYSLSSVVTVPSSSLGTQTYICNVNHKPSNTKVDKKVEPKSCDKTHTCPPCPAPEAAGGPSVFLFPPKPKDTLMISRTPEVTCVVVDVSHEDPEVKFNWYVDGVEVHNAKTKPREEQYASTYRVVSVLTVLHQDWLNGKEYKCKVSNKALPAPIEKTISKAKGQPREPQVYTLPPSRCELTKNQVSLSCAVKGFYPSDIAVEWESNGQPENNYKTTPPVLDSDGSFFLVSKLTVDKSRWQQGNVFSCSVMHEALHNHYTQKSLSLSPDYKDDDDK EPKSSDKTHTCPPCPAPELLGGPSVFLFPPKPKDTLMISRTPEVTCVVVDVSHEDPEVKFNWYVDGVEVHNAKTKPREEQYNSTYRVVSVLTVLHQDWLNGKEYKCKVSNKALPAPIEKTISKAKGQPREPQVCTLPPSRDELTKNQVSLWCLVKGFYPSDIAVEWESNGQPENNYKTTPPVLDSDGSFFLYSKLTVDKSRWQQGNVFSCSVMHEALHNRYTQKSLSLSP light: DIVMTQSPLSLPVTPGEPASISCRSSQSLVHSNRNTYLHWYQQKPGQAPRLLIYKVSNRFSGVPDRFSGSGSGTDFTLKISRVEAEDVGVYYCGQGTQVPYTFGQGTKLEIKRTVAAPSVFIFPPSDEQLKSGTASVVCLLNNFYPREAKVQWKVDNALQSGNSQESVTEQDSKDSTYSLSSTLTLSKADYEKHKVYACEVTHQGLSSPVTKSFNRGEC | 4.85
2 | CE115HA000 G98R one-arm antibody (antibody, human IgG1, kappa, L234A L235A, N297A, name in Kabat numbering, one-arm antibody) heavy: QVQLVESGGGVVQPGRSLRLSCAASGFTFSNAWMHWVRQAPGKGLEWVAQIKAKSNNYATYYAESVKGRFTISRDDSKNSLYLQMNSLKTEDTAVYYCRYVHYRAYYGVDAWGQGTTVTVSSASTKGPSVFPLAPSSKSTSGGTAALGCLVKDYFPEPVTVSWNSGALTSGVHTFPAVLQSSGLYSLSSVVTVPSSSLGTQTYICNVNHKPSNTKVDKKVEPKSCDKTHTCPPCPAPEAAGGPSVFLFPPKPKDTLMISRTPEVTCVVVDVSHEDPEVKFNWYVDGVEVHNAKTKPREEQYASTYRVVSVLTVLHQDWLNGKEYKCKVSNKALPAPIEKTISKAKGQPREPQVYTLPPSRCELTKNQVSLSCAVKGFYPSDIAVEWESNGQPENNYKTTPPVLDSDGSFFLVSKLTVDKSRWQQGNVFSCSVMHEALHNHYTQKSLSLSPDYKDDDDK EPKSSDKTHTCPPCPAPELLGGPSVFLFPPKPKDTLMISRTPEVTCVVVDVSHEDPEVKFNWYVDGVEVHNAKTKPREEQYNSTYRVVSVLTVLHQDWLNGKEYKCKVSNKALPAPIEKTISKAKGQPREPQVCTLPPSRDELTKNQVSLWCLVKGFYPSDIAVEWESNGQPENNYKTTPPVLDSDGSFFLYSKLTVDKSRWQQGNVFSCSVMHEALHNRYTQKSLSLSP light: DIVMTQSPLSLPVTPGEPASISCRSSQSLVHSNRNTYLHWYQQKPGQAPRLLIYKVSNRFSGVPDRFSGSGSGTDFTLKISRVEAEDVGVYYCGQGTQVPYTFGQGTKLEIKRTVAAPSVFIFPPSDEQLKSGTASVVCLLNNFYPREAKVQWKVDNALQSGNSQESVTEQDSKDSTYSLSSTLTLSKADYEKHKVYACEVTHQGLSSPVTKSFNRGEC | 4.69
3 | CE115HA000 G98Q one-arm antibody (antibody, human IgG1, kappa, L234A L235A, N297A, name in Kabat numbering, one-arm antibody) heavy: QVQLVESGGGVVQPGRSLRLSCAASGFTFSNAWMHWVRQAPGKGLEWVAQIKAKSNNYATYYAESVKGRFTISRDDSKNSLYLQMNSLKTEDTAVYYCRYVHYQAYYGVDAWGQGTTVTVSSASTKGPSVFPLAPSSKSTSGGTAALGCLVKDYFPEPVTVSWNSGALTSGVHTFPAVLQSSGLYSLSSVVTVPSSSLGTQTYICNVNHKPSNTKVDKKVEPKSCDKTHTCPPCPAPEAAGGPSVFLFPPKPKDTLMISRTPEVTCVVVDVSHEDPEVKFNWYVDGVEVHNAKTKPREEQYASTYRVVSVLTVLHQDWLNGKEYKCKVSNKALPAPIEKTISKAKGQPREPQVYTLPPSRCELTKNQVSLSCAVKGFYPSDIAVEWESNGQPENNYKTTPPVLDSDGSFFLVSKLTVDKSRWQQGNVFSCSVMHEALHNHYTQKSLSLSPDYKDDDDK EPKSSDKTHTCPPCPAPELLGGPSVFLFPPKPKDTLMISRTPEVTCVVVDVSHEDPEVKFNWYVDGVEVHNAKTKPREEQYNSTYRVVSVLTVLHQDWLNGKEYKCKVSNKALPAPIEKTISKAKGQPREPQVCTLPPSRDELTKNQVSLWCLVKGFYPSDIAVEWESNGQPENNYKTTPPVLDSDGSFFLYSKLTVDKSRWQQGNVFSCSVMHEALHNRYTQKSLSLSP light: DIVMTQSPLSLPVTPGEPASISCRSSQSLVHSNRNTYLHWYQQKPGQAPRLLIYKVSNRFSGVPDRFSGSGSGTDFTLKISRVEAEDVGVYYCGQGTQVPYTFGQGTKLEIKRTVAAPSVFIFPPSDEQLKSGTASVVCLLNNFYPREAKVQWKVDNALQSGNSQESVTEQDSKDSTYSLSSTLTLSKADYEKHKVYACEVTHQGLSSPVTKSFNRGEC | 1.04
4 | CE115HA000 G98P one-arm antibody (antibody, human IgG1, kappa, L234A L235A, N297A, name in Kabat numbering, one-arm antibody) heavy: QVQLVESGGGVVQPGRSLRLSCAASGFTFSNAWMHWVRQAPGKGLEWVAQIKAKSNNYATYYAESVKGRFTISRDDSKNSLYLQMNSLKTEDTAVYYCRYVHYPAYYGVDAWGQGTTVTVSSASTKGPSVFPLAPSSKSTSGGTAALGCLVKDYFPEPVTVSWNSGALTSGVHTFPAVLQSSGLYSLSSVVTVPSSSLGTQTYICNVNHKPSNTKVDKKVEPKSCDKTHTCPPCPAPEAAGGPSVFLFPPKPKDTLMISRTPEVTCVVVDVSHEDPEVKFNWYVDGVEVHNAKTKPREEQYASTYRVVSVLTVLHQDWLNGKEYKCKVSNKALPAPIEKTISKAKGQPREPQVYTLPPSRCELTKNQVSLSCAVKGFYPSDIAVEWESNGQPENNYKTTPPVLDSDGSFFLVSKLTVDKSRWQQGNVFSCSVMHEALHNHYTQKSLSLSPDYKDDDDK EPKSSDKTHTCPPCPAPELLGGPSVFLFPPKPKDTLMISRTPEVTCVVVDVSHEDPEVKFNWYVDGVEVHNAKTKPREEQYNSTYRVVSVLTVLHQDWLNGKEYKCKVSNKALPAPIEKTISKAKGQPREPQVCTLPPSRDELTKNQVSLWCLVKGFYPSDIAVEWESNGQPENNYKTTPPVLDSDGSFFLYSKLTVDKSRWQQGNVFSCSVMHEALHNRYTQKSLSLSP light: DIVMTQSPLSLPVTPGEPASISCRSSQSLVHSNRNTYLHWYQQKPGQAPRLLIYKVSNRFSGVPDRFSGSGSGTDFTLKISRVEAEDVGVYYCGQGTQVPYTFGQGTKLEIKRTVAAPSVFIFPPSDEQLKSGTASVVCLLNNFYPREAKVQWKVDNALQSGNSQESVTEQDSKDSTYSLSSTLTLSKADYEKHKVYACEVTHQGLSSPVTKSFNRGEC | 0.88
